Data set [1] addresses Hel308 Mbu-E284Faz heat treated E284Faz (Methanococcoides burtonii) (UniProt Q12WZ6). Particulars: four nitroindoles between SEQ 155 3' end and SEQ 154 5' end; percent of movements reaching polyT; 500 nM enzyme; nanopore; 960 mM KCl, 10 mM MgCl2, 1 mM ATP.
Data set [2] has as its target Hel308 Mbu-E284Faz E284Faz (Methanococcoides burtonii) (UniProt Q12WZ6). Particulars: four nitroindoles between SEQ 155 3' end and SEQ 154 5' end; percent of movements reaching polyT; nanopore; 960 mM KCl, 10 mM MgCl2, 1 mM ATP, +120 mV.

Sequence of Hel308 Mbu-E284Faz heat treated E284Faz (Methanococcoides burtonii) (Q12WZ6 whole entry): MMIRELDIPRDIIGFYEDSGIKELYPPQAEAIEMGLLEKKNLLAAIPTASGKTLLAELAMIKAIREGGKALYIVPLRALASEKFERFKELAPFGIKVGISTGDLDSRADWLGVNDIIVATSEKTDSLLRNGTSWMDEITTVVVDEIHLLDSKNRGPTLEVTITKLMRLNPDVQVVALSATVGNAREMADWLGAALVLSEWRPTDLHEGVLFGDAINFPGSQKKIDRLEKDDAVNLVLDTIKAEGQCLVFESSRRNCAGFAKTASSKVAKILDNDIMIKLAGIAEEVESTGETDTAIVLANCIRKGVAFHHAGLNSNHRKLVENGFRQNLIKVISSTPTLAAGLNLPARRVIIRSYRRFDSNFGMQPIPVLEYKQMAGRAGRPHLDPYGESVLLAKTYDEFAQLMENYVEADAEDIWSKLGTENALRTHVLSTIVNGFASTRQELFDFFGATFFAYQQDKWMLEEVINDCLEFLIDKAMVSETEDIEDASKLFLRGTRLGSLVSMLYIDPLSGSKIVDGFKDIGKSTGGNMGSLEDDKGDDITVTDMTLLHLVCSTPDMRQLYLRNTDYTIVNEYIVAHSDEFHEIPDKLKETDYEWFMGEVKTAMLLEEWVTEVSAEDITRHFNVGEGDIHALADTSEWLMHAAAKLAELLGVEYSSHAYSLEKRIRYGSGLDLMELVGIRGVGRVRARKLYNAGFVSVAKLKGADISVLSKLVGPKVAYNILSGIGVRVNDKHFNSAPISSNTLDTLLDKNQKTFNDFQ
Sequence of Hel308 Mbu-E284Faz E284Faz (Methanococcoides burtonii) (Q12WZ6 whole entry): as above

3.6 kb DNA: the activity in data set [1] came to 71%; in data set [2], 28%.

The values are drawn from patent publication US20240417704.
